Legend:
complement C3 = complement C3 (UniProt P01024)

Chain of complement C3, P01024 (P01024 whole entry, looked up): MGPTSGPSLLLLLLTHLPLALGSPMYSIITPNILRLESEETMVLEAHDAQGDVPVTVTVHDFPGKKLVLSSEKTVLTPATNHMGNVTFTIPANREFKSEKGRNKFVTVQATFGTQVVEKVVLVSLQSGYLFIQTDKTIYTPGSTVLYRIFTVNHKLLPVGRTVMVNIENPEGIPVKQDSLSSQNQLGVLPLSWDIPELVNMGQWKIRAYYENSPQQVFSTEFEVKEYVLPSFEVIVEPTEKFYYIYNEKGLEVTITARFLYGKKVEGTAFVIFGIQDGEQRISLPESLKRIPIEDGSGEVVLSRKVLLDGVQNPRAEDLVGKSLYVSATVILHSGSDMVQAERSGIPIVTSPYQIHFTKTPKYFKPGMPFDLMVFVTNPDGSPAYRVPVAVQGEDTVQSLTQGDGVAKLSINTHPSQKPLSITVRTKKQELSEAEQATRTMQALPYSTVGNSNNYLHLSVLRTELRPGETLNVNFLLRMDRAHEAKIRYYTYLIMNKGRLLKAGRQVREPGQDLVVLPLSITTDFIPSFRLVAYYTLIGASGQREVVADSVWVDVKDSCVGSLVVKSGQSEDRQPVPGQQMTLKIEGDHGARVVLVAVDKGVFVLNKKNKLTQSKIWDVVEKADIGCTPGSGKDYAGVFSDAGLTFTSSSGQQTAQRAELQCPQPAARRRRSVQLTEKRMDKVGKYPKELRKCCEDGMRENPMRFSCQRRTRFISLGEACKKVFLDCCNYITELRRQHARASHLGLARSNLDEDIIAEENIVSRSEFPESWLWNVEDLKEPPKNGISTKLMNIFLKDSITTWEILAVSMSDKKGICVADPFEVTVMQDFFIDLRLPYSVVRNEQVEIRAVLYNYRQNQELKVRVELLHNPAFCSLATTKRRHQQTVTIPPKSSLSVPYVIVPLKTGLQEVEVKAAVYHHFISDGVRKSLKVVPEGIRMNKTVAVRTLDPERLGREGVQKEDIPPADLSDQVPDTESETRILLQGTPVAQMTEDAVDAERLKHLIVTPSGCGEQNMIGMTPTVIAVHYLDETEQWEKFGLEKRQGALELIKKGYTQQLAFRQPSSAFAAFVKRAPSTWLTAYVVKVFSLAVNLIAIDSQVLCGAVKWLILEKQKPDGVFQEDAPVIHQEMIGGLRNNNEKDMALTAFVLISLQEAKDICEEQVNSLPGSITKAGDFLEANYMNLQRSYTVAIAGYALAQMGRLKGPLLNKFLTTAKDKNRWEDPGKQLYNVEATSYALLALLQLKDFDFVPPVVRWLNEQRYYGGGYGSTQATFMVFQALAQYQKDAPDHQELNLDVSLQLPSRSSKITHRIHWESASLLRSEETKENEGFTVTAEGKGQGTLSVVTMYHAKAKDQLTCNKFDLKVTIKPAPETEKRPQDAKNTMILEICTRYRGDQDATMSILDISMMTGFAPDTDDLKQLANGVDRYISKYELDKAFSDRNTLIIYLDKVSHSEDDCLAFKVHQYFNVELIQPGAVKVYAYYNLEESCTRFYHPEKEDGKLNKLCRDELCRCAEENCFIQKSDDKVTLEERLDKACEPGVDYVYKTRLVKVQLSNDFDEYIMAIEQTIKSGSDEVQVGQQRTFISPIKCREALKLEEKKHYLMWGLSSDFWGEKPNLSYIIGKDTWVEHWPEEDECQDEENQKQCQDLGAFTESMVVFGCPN

human FXIa (activated human clotting factor XI)
cleavage of the C3 a-chain to the a' chain (Western blot) (complement C3): can cleave C3 in vitro in the absence of any complement proteases

human FXa (activated human clotting factor X)
cleavage of the C3 a-chain to the a' chain (Western blot) (complement C3): can cleave C3 in vitro in the absence of any complement proteases

B1: bovine FXa (activated bovine clotting factor X) (protein)
chain: ANSFLEEVKQGNLERECLEEACSLEEAREVFEDAEQTDEFWSKYKDGDQCEGHPCLNQGHCKDGIGDYTCTCAEGFEGKNCEFSTREICSLDNGGCDQFCREERSEVRCSCAHGYVLGDDSKSCVSTERFPCGKFTQGRSRRWAIHTSEDALDASELEHYDPADLSPTESSLDLLGLNRTEPSAGEDGSQVVRIVGGRDCAEGECPWQALLVNEENEGFCGGTILNEFYVLTAAHCLHQAKRFTVRVGDRNTEQEEGNEMAHEVEMTVKHSRFVKETYDFDIAVLRLKTPIRFRRNVAPACLPEKDWAEATLMTQKTGIVSGFGRTHEKGRLSSTLKMLEVPYVDRSTCKLSSSFTITPNMFCAGYDTQPEDACQGDSGGPHVTRFKDTYFVTGIVSWGEGCARKGKFGVYTKVSNFLKWIDKIMKARAGAAGSRGHSEAPATWTVPPPLPL
cleavage of the C3 a-chain to the a' chain (Western blot) (complement C3, P01024): can cleave C3 in vitro in the absence of any complement proteases

Source: patent US20220064330A1
